Patent publication US20110262448A1 (Bristol-Myers Squibb, published 2011)
Where a chain is given by its changes, count along the chain named.

B1: human monoclonal antibody 7B1 (antibody, V domains shown)
VH: EVHLVESGGGLVQPGGSLRLSCAASGFTFSRYWMSWVRQAQGKGLEWVASIKQAGSEKTYVDSVKGRFTISRDNAKNSLSLQMNSLRAEDTAVYYCAREGAYYYDSASYYPYYYYYSMDVWGQGTTVTVSS
VL: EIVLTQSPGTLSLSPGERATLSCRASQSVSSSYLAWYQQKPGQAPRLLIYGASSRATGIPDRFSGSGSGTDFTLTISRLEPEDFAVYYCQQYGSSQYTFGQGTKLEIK
notes: also called 7B1 mAb; 1382.210.7B1.2.18
B2: human monoclonal antibody 3C10 (antibody, IgG1, V domains shown)
VH: QVYLVESGGGVVQPGRSLRLSCAASGITFSIYGMHWVRQAPGKGLEWVAVIWYDGSHEYYADSVKGRFTISRDNSKNTLYLLMNSLRAEDTAVYYCARDGDYYDSGSPLDYWGQGTLVTVSS
VL: EIVLTQSPATLSLSPGERATLSCRASQSVSSYLAWYQQKPGQAPRLLIYDASNRATGIPARFSGSGSGTDFTLTISSLEPEDFAVYYCQQRSNWPLTFGGGTKVEIK
notes: hybridoma-derived purified antibody; also called 3C10 mAb; 1382.210.3C10.1.6
B3: human monoclonal antibody 6A4 (antibody, IgG1, V domains shown)
VH: B2 VH with Y3H, A23V, S30R, I51L, L82Q, V93I
VL: B2 VL
notes: also called 6A4 mAb; 1382.210.6A4.1.6

Experiments:
[1] = molecular target: T1, cell-surface human mesothelin (naturally expressed on OVCAR3, NCI-H226, CFPAC-1 and KB cells and on human … (human, UniProt Q13421 296-598)); assay: flow cytometry on KB cells
T1 construct: whole, on cells; Endogenously expressed on the cell lines; also called cell surface mesothelin
Protocol: (§1) To test the ability of the antibodies to bind to cell surface mesothelin protein, the antibodies were incubated with four different mesothelin-expressing cells: OVCAR3 (ATCC Designation HTB-161, a human ovarian cancer cell line), NCI-H226 (ATCC Designation CRL-5826, a human lung-derived mesothelioma), CFPAC-1 (ATCC Designation CRL-1918, a human pancreatic cancer cell line), and KB (ATCC Designation CCL-17, a human oral carcinoma cell line). For the flow cytometry studies, the 3C10, 6A4 and 7B1 monoclonal antibodies were diluted with cold 1×PBS+0.1% BSA to 40 μg/mL. For the binding reaction, 50 μl of diluted antibody solution was added to a 50 μl cell suspension containing 4×10⁵ cells and the mixture was incubated on ice for 30-60 minutes. The cells were then washed three times with 1×PBS+0.1% BSA. A 1:50 dilution of R-phycoerythrin-labeled goat anti-human IgG Fγ F(ab)₂ fragment (Jackson ImmunoResearch Labs, Cat. #109-116-098) was added and the mixture was incubated on ice for 1 hour, followed by washing twice with cold 1×PBS+0.1% BSA. After the final wash, 200 μl of cold 1×PBS+0.1% BSA was added to each solution and analysis of antibody binding was carried out by FACS.

[2] = molecular target: T1, cell-surface human mesothelin …; assay: flow cytometry on OVCAR3 cells
Protocol: as §1

[3] = molecular target: T1, cell-surface human mesothelin …; assay: flow cytometry on CFPAC-1 cells
Protocol: as §1

[4] = molecular target: T1, cell-surface human mesothelin …; assay: flow cytometry on NCI-H226 cells
Protocol: as §1

[5] = molecular target: T2, hu mesothelin-his fusion protein (human, UniProt Q13421 296-598, limits assumed); assay: BIAcore SPR, antibody captured on protein G chip, mesothelin His-fusion protein injected
T2 construct: domain: 40 kD portion of mesothelin; Soluble fusion protein secreted by transfected CHO cells; also called recombinant soluble mesothelin his-fusion protein; recombinant human mesothelin His-fusion protein; not shown: His tag at the C-terminus
Protocol: The binding of the 3C10, 6A4 and 7B1 antibodies to recombinant soluble mesothelin his-fusion protein was examined by BIAcore™ using a capture method. The 3C10, 6A4 and 7B1 antibodies each were separately captured on a protein G (Pierce, Rockford, Ill.) coated CM5 chip at high density (4000 RUs). The coating was performed based on the standard immobilization procedure recommended by the manufacturer. After the 3C10, 6A4 or 7B1 purified antibody was captured on protein G, a concentration series of recombinant human mesothelin His-fusion protein (450, 225, 112.5, 56, and 28 nM) was injected over the captured antibody for 2 minutes at a flow rate of […]. The antigen was allowed to dissociate for 8 minutes. Isotype controls were run on the chip, and the data used to subtract non-specific binding. All the analyses were carried out on a Biacore 2000 or 3000 surface plasmon resonance instrument, using BIAcore Control software v 4.01. Data was analyzed using BiaEvaluation v4.01 software.

[6] = molecular target: mesothelin on CHO-mesothelin cells (CHO cells transfected to express the 40 kD membrane-associated portion of … (UniProt Q13421 296-598, limits assumed)); assay: cell-based or functional assay
mesothelin on CHO-mesothelin cells (CHO cells transfected to express the 40 kD membrane-associated portion of …, sequence (Q13421 other isoform, or with tags, fused parts or gaps limits assumed): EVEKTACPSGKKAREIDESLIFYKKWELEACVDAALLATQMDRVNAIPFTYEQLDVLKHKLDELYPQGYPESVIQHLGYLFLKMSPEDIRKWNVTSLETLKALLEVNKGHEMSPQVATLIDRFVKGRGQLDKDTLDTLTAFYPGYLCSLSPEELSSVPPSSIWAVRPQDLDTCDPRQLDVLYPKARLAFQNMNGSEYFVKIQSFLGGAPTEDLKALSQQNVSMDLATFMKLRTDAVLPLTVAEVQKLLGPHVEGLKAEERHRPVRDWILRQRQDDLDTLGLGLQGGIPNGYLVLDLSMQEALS

T2 sequence (Q13421 other isoform, or with tags, fused parts or gaps limits assumed): as above
T1 sequence (Q13421 other isoform, or with tags, fused parts or gaps limits assumed): as above

| Binder | EC50 [1] [nM] | EC50 [2] [nM] | EC50 [3] [nM] | EC50 [4] [nM] | Kd [5] [nM] | koff [5] [s⁻¹] | kon [5] [M⁻¹ s⁻¹] | Antibody Dependent Cellular Cytotoxicity, EC50 (nM), CHO-mesothelin target cells [6] [nM] |
| --- | --- | --- | --- | --- | --- | --- | --- | --- |
| B1 | 0.0679 | 0.11 | 0.0643 | 0.664 | 2.4 | 0.000171 | 71500 |  |
| B2 | 0.144 | 0.213 | 0.193 | 0.197 | 5.8 | 0.000362 | 63000 |  |
| B3 | 0.181 | 0.17 | 0.193 | 0.156 | 5.9 | 0.000377 | 63900 | 63.1 |
